The labels stand for the following.
B1: glmS ribozyme (parent)
chain: AUAAAAGCGCCAGAACUACAGAAAUGUAGUUGACGAGGAGGAGGUUUAUCGAAUUUUCGGCGGAUGCCUCCAAA

± gives the standard error. Variants at the floor of the assay were thinned out.

In the first data set the parent is B1. In words: self-cleavage kobs at 2500 uM GlcN6P; higher = faster cleavage; RNA array. The note with it: with glucosamine-6-phosphate. The procedure, abridged:
(§1)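 The measurements used barcoded ribozyme variants on sequenced MiSeq chips, transcribed in situ by E. coli RNA polymerase and tracked at 37 °C with a hybridised Cy3 probe. Glucosamine-6-phosphate, 40 μM to 10 mM in HEPES/KCl/Mg(OAc)2 buffer, was flowed in while tiles were imaged over ~14 h. Baseline-normalised signals, also normalised to non-cleaving reference variants, gave per-tile medians that were fit to one- or two-exponential decays for kobs. kcat and KM resulted from weighted Michaelis–Menten fits across concentrations.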
For G44C A48G A53C G59U, the “self-cleavage kobs at 2500 uM GlcN6P” value was below 1e-05 s⁻¹.

As to A15G G51U C61A, the “self-cleavage kobs at 2500 uM GlcN6P” value is below 1e-05 s⁻¹.

Consider C8U C16U G37C A39G U54C, for which the “self-cleavage kobs at 2500 uM GlcN6P” value was below 1e-05 s⁻¹.

As for A12U U31G U56A, the “self-cleavage kobs at 2500 uM GlcN6P” value was 0.00599 ± 0.0012 s⁻¹.

Turning to U31C A53C U55C, the “self-cleavage kobs at 2500 uM GlcN6P” value was found to be 0.000164 ± 5e-05 s⁻¹.

Regarding U46C U47A U69A, the “self-cleavage kobs at 2500 uM GlcN6P” value amounted to 0.000198 ± 6.5e-05 s⁻¹.

As to C8A A14G C68U C70G, the “self-cleavage kobs at 2500 uM GlcN6P” value is below 1e-05 s⁻¹.

In the case of A15U G37U G43C U56A C68G C71G, the “self-cleavage kobs at 2500 uM GlcN6P” value was below 1e-05 s⁻¹.

On to G13U A39G U47G C71A, for which the “self-cleavage kobs at 2500 uM GlcN6P” value turned out to be 5.73e-05 ± 1.7e-05 s⁻¹.

Turning to C50G A52C U69C C70A, the “self-cleavage kobs at 2500 uM GlcN6P” value was determined as 0.000257 ± 8e-05 s⁻¹.

Consider G7U U31C A36U A39C A42G G59U G66U, for which the “self-cleavage kobs at 2500 uM GlcN6P” value was below 1e-05 s⁻¹.

A6U C34A G44A: the “self-cleavage kobs at 2500 uM GlcN6P” value is below 1e-05 s⁻¹.

For A42C U56G U65C C71U, the “self-cleavage kobs at 2500 uM GlcN6P” value was below 1e-05 s⁻¹.

Take G29A G41U G62C: the “self-cleavage kobs at 2500 uM GlcN6P” value is below 1e-05 s⁻¹.

As to U57G C58A C70U C71G, the “self-cleavage kobs at 2500 uM GlcN6P” value was 9.31e-05 ± 2.5e-05 s⁻¹.

With A12U G41U A48U, the “self-cleavage kobs at 2500 uM GlcN6P” value is 7.03e-05 ± 3e-05 s⁻¹.

C16G G32C G41U U69C: the “self-cleavage kobs at 2500 uM GlcN6P” value is below 1e-05 s⁻¹.

Consider C10A G40U U56A U65C, for which the “self-cleavage kobs at 2500 uM GlcN6P” value is below 1e-05 s⁻¹.

As to A39U U65C C67G, the “self-cleavage kobs at 2500 uM GlcN6P” value was determined as 0.000168 ± 5.5e-05 s⁻¹.

With C16U U30C G32U G35U U47G, the “self-cleavage kobs at 2500 uM GlcN6P” value was below 1e-05 s⁻¹.

On to A1U G41U C70G C71U, for which the “self-cleavage kobs at 2500 uM GlcN6P” value stood at 0.000249 ± 4e-05 s⁻¹.

In the case of C8G C11A A33U G44A C58U, the “self-cleavage kobs at 2500 uM GlcN6P” value was below 1e-05 s⁻¹.

As for A6U A39U G41C, the “self-cleavage kobs at 2500 uM GlcN6P” value was below 1e-05 s⁻¹.

On to C50U C61U U69A, for which the “self-cleavage kobs at 2500 uM GlcN6P” value turned out to be 0.000118 ± 3.5e-05 s⁻¹.

G29A G35U A53U: the “self-cleavage kobs at 2500 uM GlcN6P” value was below 1e-05 s⁻¹.

C10A A64C C67G: the “self-cleavage kobs at 2500 uM GlcN6P” value came to 8.61e-05 ± 3.1e-05 s⁻¹.

In the case of U31G U49G G59C, the “self-cleavage kobs at 2500 uM GlcN6P” value was below 1e-05 s⁻¹.

G9U C16G G29C A52U G59U: the “self-cleavage kobs at 2500 uM GlcN6P” value was below 1e-05 s⁻¹.

Regarding G7A A12G A15U G44U U45A A53C, the “self-cleavage kobs at 2500 uM GlcN6P” value was below 1e-05 s⁻¹.

With A14C U31C U65A C70A, the “self-cleavage kobs at 2500 uM GlcN6P” value worked out at 7.72e-05 ± 2.5e-05 s⁻¹.

For G9U G32U G38U A42U, the “self-cleavage kobs at 2500 uM GlcN6P” value was below 1e-05 s⁻¹.

Turning to C11A A12U G40U, the “self-cleavage kobs at 2500 uM GlcN6P” value worked out at 4.18e-05 ± 2.1e-05 s⁻¹.

On to U31A A33U U56G U65G C68A, for which the “self-cleavage kobs at 2500 uM GlcN6P” value is below 1e-05 s⁻¹.

Take G9A G29C G38C A64U: the “self-cleavage kobs at 2500 uM GlcN6P” value was below 1e-05 s⁻¹.

Consider A12G U31C U54C, for which the “self-cleavage kobs at 2500 uM GlcN6P” value was 3.97e-05 ± 1.2e-05 s⁻¹.

Consider A15G G32A C71G, for which the “self-cleavage kobs at 2500 uM GlcN6P” value was 0.000277 ± 0.0001 s⁻¹.

For G37C G38U A42C U45C U46G, the “self-cleavage kobs at 2500 uM GlcN6P” value was below 1e-05 s⁻¹.

Take A6G A14U U30C A48U C67G C68G: the “self-cleavage kobs at 2500 uM GlcN6P” value is 7.37e-05 ± 3e-05 s⁻¹.

A12G A33C G37C G40C: the “self-cleavage kobs at 2500 uM GlcN6P” value was below 1e-05 s⁻¹.

G13C A15G C58A: the “self-cleavage kobs at 2500 uM GlcN6P” value came out at 5.1e-05 ± 1.5e-05 s⁻¹.

For C10U A15G G44U C50G, the “self-cleavage kobs at 2500 uM GlcN6P” value was below 1e-05 s⁻¹.

Regarding G7U G9U U31C U56C, the “self-cleavage kobs at 2500 uM GlcN6P” value was below 1e-05 s⁻¹.

For the variant C16G A42G A64U G66A C68A, the “self-cleavage kobs at 2500 uM GlcN6P” value was below 1e-05 s⁻¹.

On to C50A A53G C58G C68A, for which the “self-cleavage kobs at 2500 uM GlcN6P” value worked out at 0.000108 ± 3.9e-05 s⁻¹.

G29C G32U C67A: the “self-cleavage kobs at 2500 uM GlcN6P” value is 4.32e-05 ± 2e-05 s⁻¹.

Take G7U C16U U46G: the “self-cleavage kobs at 2500 uM GlcN6P” value is below 1e-05 s⁻¹.

As to A42C A53C U55C, the “self-cleavage kobs at 2500 uM GlcN6P” value is below 1e-05 s⁻¹.

Regarding A15U G37A G66C, the “self-cleavage kobs at 2500 uM GlcN6P” value came to 7.17e-05 ± 1.8e-05 s⁻¹.

Turning to A39G G43U U54C, the “self-cleavage kobs at 2500 uM GlcN6P” value turned out to be 6.53e-05 ± 2.4e-05 s⁻¹.

Regarding U45C U46A, the “self-cleavage kobs at 2500 uM GlcN6P” value came out at 4.42e-05 ± 1.9e-05 s⁻¹.

U31C G38A G40A: the “self-cleavage kobs at 2500 uM GlcN6P” value was below 1e-05 s⁻¹.

As for A42U G66A, the “self-cleavage kobs at 2500 uM GlcN6P” value is 7.23e-05 ± 2.1e-05 s⁻¹.

As to C8A A12C C68U, the “self-cleavage kobs at 2500 uM GlcN6P” value is below 1e-05 s⁻¹.

As to A14U A36U C71U, the “self-cleavage kobs at 2500 uM GlcN6P” value is below 1e-05 s⁻¹.

With G9C C10A G32A, the “self-cleavage kobs at 2500 uM GlcN6P” value is below 1e-05 s⁻¹.

Take C16A A42U A64U: the “self-cleavage kobs at 2500 uM GlcN6P” value was below 1e-05 s⁻¹.

In the case of G40C A52G G60A, the “self-cleavage kobs at 2500 uM GlcN6P” value is below 1e-05 s⁻¹.

With U2C A6C G60A, the “self-cleavage kobs at 2500 uM GlcN6P” value was below 1e-05 s⁻¹.

Turning to A6C C34A A39G U45A, the “self-cleavage kobs at 2500 uM GlcN6P” value was below 1e-05 s⁻¹.

Consider A18U, for which the “self-cleavage kobs at 2500 uM GlcN6P” value came to 0.00664 ± 0.0014 s⁻¹.

On to C16U U57A C70G, for which the “self-cleavage kobs at 2500 uM GlcN6P” value was found to be 5.1e-05 ± 2.1e-05 s⁻¹.

In the case of G7C U31C U46C G66U, the “self-cleavage kobs at 2500 uM GlcN6P” value is below 1e-05 s⁻¹.

For the variant A6G G51C G62A, the “self-cleavage kobs at 2500 uM GlcN6P” value was below 1e-05 s⁻¹.

In the case of U31A G32U U45G, the “self-cleavage kobs at 2500 uM GlcN6P” value amounted to 0.000148 ± 5.6e-05 s⁻¹.

On to G29C A33U G38C U56A C71U, for which the “self-cleavage kobs at 2500 uM GlcN6P” value was below 1e-05 s⁻¹.

As for A15G C34G A42U C67G, the “self-cleavage kobs at 2500 uM GlcN6P” value was below 1e-05 s⁻¹.

As for A15G G29A A36G, the “self-cleavage kobs at 2500 uM GlcN6P” value is below 1e-05 s⁻¹.

As to G13U U47G C67A, the “self-cleavage kobs at 2500 uM GlcN6P” value came out at 7.8e-05 ± 1.6e-05 s⁻¹.

In the case of G21U A64U, the “self-cleavage kobs at 2500 uM GlcN6P” value was determined as 0.000111 ± 2.9e-05 s⁻¹.

In the case of G41U G44U C67U U69G, the “self-cleavage kobs at 2500 uM GlcN6P” value is below 1e-05 s⁻¹.

Take A14C A39U G41U U65G: the “self-cleavage kobs at 2500 uM GlcN6P” value was below 1e-05 s⁻¹.

For the variant C10U U57G C67U C70U, the “self-cleavage kobs at 2500 uM GlcN6P” value was 6.12e-05 ± 2.7e-05 s⁻¹.

U47A A64U C67G: the “self-cleavage kobs at 2500 uM GlcN6P” value was below 1e-05 s⁻¹.

On to G7U U55C C71A, for which the “self-cleavage kobs at 2500 uM GlcN6P” value was below 1e-05 s⁻¹.

For the variant G32C A33U G40U, the “self-cleavage kobs at 2500 uM GlcN6P” value was below 1e-05 s⁻¹.

As to C11U G35C U47G G63A, the “self-cleavage kobs at 2500 uM GlcN6P” value is below 1e-05 s⁻¹.

The variants in another data set derive from B1. In words: self-cleavage kobs at 10000 uM GlcN6P; higher = faster cleavage; RNA array. The note with it: with glucosamine-6-phosphate. The procedure, abridged:
as §1
As for A39U U65C C67G, the “self-cleavage kobs at 10000 uM GlcN6P” value was 0.00025 ± 6e-05 s⁻¹.

Turning to A1U G41U C70G C71U, the “self-cleavage kobs at 10000 uM GlcN6P” value is 0.000232 ± 6e-05 s⁻¹.

Turning to G9U C16G G29C A52U G59U, the “self-cleavage kobs at 10000 uM GlcN6P” value is below 1e-05 s⁻¹.

As for C11A A12U G40U, the “self-cleavage kobs at 10000 uM GlcN6P” value was found to be 6.34e-05 ± 1.6e-05 s⁻¹.

Consider A15G G32A C71G, for which the “self-cleavage kobs at 10000 uM GlcN6P” value was 0.000201 ± 3.3e-05 s⁻¹.

Take G13C A15G C58A: the “self-cleavage kobs at 10000 uM GlcN6P” value was determined as 0.000154 ± 2.6e-05 s⁻¹.

On to G29C G32U C67A, for which the “self-cleavage kobs at 10000 uM GlcN6P” value stood at 0.00017 ± 2.6e-05 s⁻¹.

As to U45C U46A, the “self-cleavage kobs at 10000 uM GlcN6P” value was 5.25e-05 ± 1.3e-05 s⁻¹.

Consider A42U G66A, for which the “self-cleavage kobs at 10000 uM GlcN6P” value is 0.000114 ± 2.5e-05 s⁻¹.

A15G G29A A36G: the “self-cleavage kobs at 10000 uM GlcN6P” value was below 1e-05 s⁻¹.

Turning to A14C A39U G41U U65G, the “self-cleavage kobs at 10000 uM GlcN6P” value is below 1e-05 s⁻¹.

(Values after the supplement of paper PMC7125110.)
